Target: T1, PRDX1 (peroxiredoxin 1), endogenous in TM3 cells (mouse (endogenous in TM3)), P35700
T1 chain: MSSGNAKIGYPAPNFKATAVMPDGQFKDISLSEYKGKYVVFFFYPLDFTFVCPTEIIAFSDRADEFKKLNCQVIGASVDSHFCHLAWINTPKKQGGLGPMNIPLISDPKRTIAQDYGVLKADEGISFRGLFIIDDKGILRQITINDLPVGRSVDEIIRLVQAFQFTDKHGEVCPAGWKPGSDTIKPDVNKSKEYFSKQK
Test: SDS-PAGE under DTT-free conditions with western blot
Settings: remark: other sources report otherwise

stoichiometry N: 2
B1: PRDX1 (peroxiredoxin 1), endogenous in TM3 cells, P35700 1-199 (enzyme)
chain: MSSGNAKIGYPAPNFKATAVMPDGQFKDISLSEYKGKYVVFFFYPLDFTFVCPTEIIAFSDRADEFKKLNCQVIGASVDSHFCHLAWINTPKKQGGLGPMNIPLISDPKRTIAQDYGVLKADEGISFRGLFIIDDKGILRQITINDLPVGRSVDEIIRLVQAFQFTDKHGEVCPAGWKPGSDTIKPDVNKSKEYFSKQK

Source: PMC12630831
